The source of these data is publication PMC10558455, “Rab41-mediated ESCRT machinery repairs membrane rupture by a bacterial toxin in xenophagy” (Nature Communications, 2023).

The test deals with T1, streptolysin O (SLO) secreted by Group A Streptococcus strain JRS4 (Streptococcus pyogenes JRS4 (serotype …, UniProt Q5XE40)).
T1 construct: also called GAS pore-forming toxin; bacterial cytolysin
Kind of test: co-IP. The following applies: partners not purified.

B1: STAND-HS1 (anti-SLO intrabody) (scFv, V domains shown)
VH: EVQLQESGPSLVKPSQTLSLTCSVTGDSITSGYWNWIRKFPGNKFEYMGYISYGDSTYYNPSLKSRISITRDTSKNQYYLQLNSVTTEDTATYYCARLGNDYNWYFDVWGAGTTVTVSS
VL: DIQMNQSPSSLSASLGDTITITCHASQNINVWLSWYQQKPGNIPKLLIFKASNLYTGVPSRFSGSGSGTGFTLTISSLQPEDIATYYCQQGQTYPLTFGGGTKL
notes: also called anti-SLO scFv; anti-SLO intracellular antibody; not shown: 3xFLAG, N-terminal, kept
On to B1, for which the binding result is “binds”.
